For test [1], the target named is T1, factor H, Human (Merck Millipore) (human, UniProt P08603 19-1231).
T1 construct: mature; also called full-length factor H protein; full length fH protein
The test can be described thus: SPR, full-length human factor H immobilised on CM-5 chip, fHbp analyte at 250 nM. Background: Surface plasmon resonance follows binding to a sensor surface in real time, without labels.

Test [2] concerns the target T2, factor H (hfH) domain 6-7 (human, UniProt P08603 321-443).
T2 construct: domain: factor H 6-7 domain; also called factor H 6-7 domain; factor H domain 6-7
T2 sequence: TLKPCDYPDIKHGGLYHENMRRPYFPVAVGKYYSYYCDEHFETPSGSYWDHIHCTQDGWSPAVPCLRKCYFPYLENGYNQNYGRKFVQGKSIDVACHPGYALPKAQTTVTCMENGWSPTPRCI
The test can be described thus: SPR, fH 6-7 immobilised on CM-5 chip, fHbp as analyte.

In test [3] the target is T1, factor H, Human (Merck Millipore). The test can be described thus: SPR, full-length human factor H immobilised on CM-5 chip, fHbp as analyte.

The record followed here is patent US20240132550A1 (GlaxoSmithKline, published 2024).

T1 sequence (P08603 19-1231): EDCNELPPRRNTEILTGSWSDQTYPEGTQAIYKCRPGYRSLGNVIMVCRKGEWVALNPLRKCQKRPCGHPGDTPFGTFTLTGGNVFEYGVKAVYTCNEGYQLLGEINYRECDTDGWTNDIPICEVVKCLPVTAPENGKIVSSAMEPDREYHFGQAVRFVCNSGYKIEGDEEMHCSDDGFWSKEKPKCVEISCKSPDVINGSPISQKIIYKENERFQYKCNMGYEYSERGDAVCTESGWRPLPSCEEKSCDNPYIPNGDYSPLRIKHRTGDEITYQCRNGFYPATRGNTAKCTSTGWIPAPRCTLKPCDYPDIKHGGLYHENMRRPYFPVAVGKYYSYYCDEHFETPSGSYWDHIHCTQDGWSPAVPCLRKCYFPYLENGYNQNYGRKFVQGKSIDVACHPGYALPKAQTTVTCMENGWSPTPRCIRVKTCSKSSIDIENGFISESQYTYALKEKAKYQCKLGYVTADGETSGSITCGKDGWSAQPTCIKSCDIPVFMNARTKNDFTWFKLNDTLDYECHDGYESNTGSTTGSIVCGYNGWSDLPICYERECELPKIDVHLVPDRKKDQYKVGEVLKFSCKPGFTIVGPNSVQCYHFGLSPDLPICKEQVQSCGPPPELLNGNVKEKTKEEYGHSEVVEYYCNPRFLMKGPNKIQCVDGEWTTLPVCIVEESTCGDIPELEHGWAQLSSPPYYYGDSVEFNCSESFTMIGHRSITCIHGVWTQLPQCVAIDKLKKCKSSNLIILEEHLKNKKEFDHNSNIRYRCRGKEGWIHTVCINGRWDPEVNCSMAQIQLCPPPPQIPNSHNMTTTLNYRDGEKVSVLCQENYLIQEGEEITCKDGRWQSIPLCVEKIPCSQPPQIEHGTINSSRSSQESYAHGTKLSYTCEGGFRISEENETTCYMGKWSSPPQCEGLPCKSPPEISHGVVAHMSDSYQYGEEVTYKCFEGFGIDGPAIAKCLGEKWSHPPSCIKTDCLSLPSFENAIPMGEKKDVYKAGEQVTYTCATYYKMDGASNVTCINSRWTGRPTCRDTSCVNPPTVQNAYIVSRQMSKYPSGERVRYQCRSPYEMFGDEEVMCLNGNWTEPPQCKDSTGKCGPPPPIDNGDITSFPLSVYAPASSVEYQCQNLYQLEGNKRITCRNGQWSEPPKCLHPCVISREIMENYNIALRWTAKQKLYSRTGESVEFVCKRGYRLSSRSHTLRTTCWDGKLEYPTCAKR

B1: fHbp v1.15 (other)
chain: VAADIGAGLADALTAPLDHKDKGLKSLTLEDSISQNGTLTLSAQGAERTFKAGDKDNSLNTGKLKNDKISRFDFIRQIEVDGQLITLESGEFQVYKQSHSALTALQTEQVQDSEHSGKMVAKRQFRIGDIVGEHTSFGKLPKDVMATYRGTAFGSDDAGGKLTYTIDFAAKQGHGKIEHLKSPELNVDLAAADIKPDEKHHAVISGSVLYNQAEKGSYSLGIFGGQAQEVAGSAEVETANGIRHIGLAAKQLEHHHHHH
On to B1, for which, in test [1], the binding result is “binds”.

B2: fHbp v1.15 E214A (other)
chain: VAADIGAGLADALTAPLDHKDKGLKSLTLEDSISQNGTLTLSAQGAERTFKAGDKDNSLNTGKLKNDKISRFDFIRQIEVDGQLITLESGEFQVYKQSHSALTALQTEQVQDSEHSGKMVAKRQFRIGDIVGEHTSFGKLPKDVMATYRGTAFGSDDAGGKLTYTIDFAAKQGHGKIEHLKSPELNVDLAAADIKPDEKHHAVISGSVLYNQAAKGSYSLGIFGGQAQEVAGSAEVETANGIRHIGLAAKQLEHHHHHH
notes: also called v1.15 ΔG (E214A) + His tag
Take B2: the binding result in test [1] is listed as “binds”.

B3: fHbp v1.15 E214A/S219R (other)
chain: VAADIGAGLADALTAPLDHKDKGLKSLTLEDSISQNGTLTLSAQGAERTFKAGDKDNSLNTGKLKNDKISRFDFIRQIEVDGQLITLESGEFQVYKQSHSALTALQTEQVQDSEHSGKMVAKRQFRIGDIVGEHTSFGKLPKDVMATYRGTAFGSDDAGGKLTYTIDFAAKQGHGKIEHLKSPELNVDLAAADIKPDEKHHAVISGSVLYNQAAKGSYRLGIFGGQAQEVAGSAEVETANGIRHIGLAAKQHHHHHH
notes: also called v1.15 ΔG (E214A/S219R)
Turning to B3, the binding result in test [2] is listed as “no binding (tested: 250 nM)”; in test [1] it was “binds”.

B4: fHbp v1.15 E214A/E235A (other)
chain: VAADIGAGLADALTAPLDHKDKGLKSLTLEDSISQNGTLTLSAQGAERTFKAGDKDNSLNTGKLKNDKISRFDFIRQIEVDGQLITLESGEFQVYKQSHSALTALQTEQVQDSEHSGKMVAKRQFRIGDIVGEHTSFGKLPKDVMATYRGTAFGSDDAGGKLTYTIDFAAKQGHGKIEHLKSPELNVDLAAADIKPDEKHHAVISGSVLYNQAAKGSYSLGIFGGQAQEVAGSAAVETANGIRHIGLAAKQHHHHHH
notes: also called v1.15 ΔG (E214A/E235A)
As for B4, the binding result in test [2] and in test [3] was “no binding (tested: 250 nM)” in each case.
